Data reported in paper PMC4419654, “LSD1 and HY5 antagonistically regulate red light induced-programmed cell death in Arabidopsis” (Frontiers in Plant Science, 2015).

Molecular target: the molecule itself
Test: immunoblot of plant extract made without DTT; total protein of RL-treated WT plants extracted without DTT; the legend calls it an immunoprecipitation analysis; dimer and monomer LSD1 detected

B1: lesion simulating disease 1 (LSD1) (natural protein, UniProt P94077 1-189, looked up)
chain: MKVADMQDQLVCHGCRNLLMYPRGASNVRCALCNTINMVPPPPPPHDMAHIICGGCRTMLMYTRGASSVRCSCCQTTNLVPAHSNQVAHAPSSQVAQINCGHCRTTLMYPYGASSVKCAVCQFVTNVNMSNGRVPLPTNRPNGTACPPSTSTSTPPSQTQTVVVENPMSVDESGKLVSNVVVGVTTDKK
notes: lesion simulating disease 1 (LSD1), C2C2 zinc finger protein with three zinc finger domains, Arabidopsis; detected with LSD1 antibody (Agrisera); source: endogenous, Arabidopsis WT plant total protein extract
stoichiometry N: 2
